Tested on: Escherichia coli TOP10
Assay: shrunken log2 fold change of peptide-encoding DNA abundance (4.5 h post-induction vs induction); higher = less antimicrobial activity (less host growth inhibition)
Settings: time post-induction: 4.5 h; library: site-saturation at positions 5, 18, 19, 20
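Further: peptides expressed intracellularly from a pBAD plasmid library in pooled LB shake-flask culture, induced with 0.3% L-arabinose, DNA abundance read by NGS, three biological replicates, DESeq2 with apeglm shrinkage.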

Sequence	shrunken log2 fold change
RRIRERPPRLPRPRPRPLTKPRP	-0.0153
RRIRERPPRLPRPRPRPGKLPRP	0.162
RRIRARPPRLPRPRPRPQCSPRP	0.111
RRIRHRPPRLPRPRPRPRLRPRP	0.207
RRIRDRPPRLPRPRPRPEWIPRP	0.0504
RRIRKRPPRLPRPRPRPPEYPRP	0.0748
RRIRGRPPRLPRPRPRPNNLPRP	-0.349
RRIRERPPRLPRPRPRPYFCPRP	-0.765
RRIRVRPPRLPRPRPRPLCLPRP	-0.376
RRIRWRPPRLPRPRPRPNYHPRP	-0.486
RRIRVRPPRLPRPRPRPCHNPRP	-0.362
RRIRIRPPRLPRPRPRPFHKPRP	-0.196
RRIRRRPPRLPRPRPRPNYNPRP	-0.556
RRIRPRPPRLPRPRPRPFEIPRP	-0.0325
RRIRFRPPRLPRPRPRPCFAPRP	0.153
RRIRCRPPRLPRPRPRPGMIPRP	-0.0447
RRIRVRPPRLPRPRPRPYSCPRP	-0.00112
RRIRDRPPRLPRPRPRPSERPRP	0.0188
RRIRCRPPRLPRPRPRPRWTPRP	0.236
RRIRLRPPRLPRPRPRPRQCPRP	0.283
RRIRYRPPRLPRPRPRPALHPRP	0.12
RRIRNRPPRLPRPRPRPGHRPRP	0.00909

Sequence	shrunken log2 fold change
RRIRQRPPRLPRPRPRPQTEPRP	-0.128
RRIRWRPPRLPRPRPRPKMQPRP	0.329
RRIRVRPPRLPRPRPRPNRHPRP	-0.195
RRIRDRPPRLPRPRPRPDEEPRP	-0.00164
RRIRHRPPRLPRPRPRPVWNPRP	-0.402
RRIRQRPPRLPRPRPRPWTMPRP	0.0143
RRIRSRPPRLPRPRPRPERWPRP	1.14
RRIRVRPPRLPRPRPRPIRSPRP	-0.125
RRIRRRPPRLPRPRPRPKKTPRP	-0.0163
RRIRRRPPRLPRPRPRPDQVPRP	0.0594
RRIRMRPPRLPRPRPRPVDYPRP	-0.0574
RRIRMRPPRLPRPRPRPQITPRP	-0.166
RRIRRRPPRLPRPRPRPDECPRP	0.746
RRIRSRPPRLPRPRPRPIESPRP	-0.385
RRIRNRPPRLPRPRPRPLDIPRP	0.0164
RRIRIRPPRLPRPRPRPIPNPRP	-0.0731
RRIRQRPPRLPRPRPRPEQWPRP	0.222
RRIRRRPPRLPRPRPRPTIEPRP	0.212
RRIRERPPRLPRPRPRPMNEPRP	-0.0835
RRIRWRPPRLPRPRPRPQGDPRP	-0.0316
RRIRCRPPRLPRPRPRPHEHPRP	1.94
RRIRERPPRLPRPRPRPHASPRP	-0.346

Sequence	shrunken log2 fold change
RRIRMRPPRLPRPRPRPLIWPRP	0.246
RRIRGRPPRLPRPRPRPYNGPRP	-0.0131
RRIRYRPPRLPRPRPRPEKKPRP	-0.0472
RRIRMRPPRLPRPRPRPKRTPRP	3.45
RRIRFRPPRLPRPRPRPDPQPRP	0.0361
RRIRHRPPRLPRPRPRPMCRPRP	-0.0487
RRIRGRPPRLPRPRPRPAQKPRP	0.721
RRIRHRPPRLPRPRPRPYNEPRP	0.0187
RRIRRRPPRLPRPRPRPSDNPRP	-0.134
RRIRTRPPRLPRPRPRPVWTPRP	0.03
RRIRTRPPRLPRPRPRPVRRPRP	0.38
RRIRNRPPRLPRPRPRPGAHPRP	0.0408
RRIRDRPPRLPRPRPRPPYKPRP	-0.1
RRIRPRPPRLPRPRPRPKMSPRP	-0.0151
RRIRHRPPRLPRPRPRPPGTPRP	0.0679
RRIRDRPPRLPRPRPRPHPFPRP	0.0528
RRIRVRPPRLPRPRPRPTALPRP	0.388
RRIRVRPPRLPRPRPRPVPYPRP	-0.0265
RRIRERPPRLPRPRPRPNCGPRP	-0.26
RRIRSRPPRLPRPRPRPDYAPRP	-0.0222

Source: the supplement of paper PMC9112550, “Optimization of the antimicrobial peptide Bac7 by deep mutational scanning” (BMC Biology, 2022)
